These results are taken from PMC11506546, “Tropomyosin Isoforms Segregate into Distinct Clusters on Single Actin Filaments” (Biomolecules, 2024).

Common to all, as to settings: both partners purified
In test [1] the target is rabbit skeletal-muscle F-actin (rabbit, UniProt P68135 1-377). In words: co-sedimentation; 0.2-3.5 µM tropomyosin with 3 µM F-actin in T buffer (150 mM NaCl, 10 mM Tris-HCl pH 7.5, 2 mM MgCl2), 50 µL, 1 h at room temperature; 670,000 x g, 20 °C, 30 min; SDS-PAGE densitometry; Hill equation fit; apparent Kd.
For test [2], the target named is α-actin filament (muscle actin, polymerized from G-actin) (UniProt P68135 1-377). In words: TIRF microscopy of tropomyosin-decorated single actin filaments; control experiments: the same Tpm isoform labeled with AF488 and with AF568 (0.015 µM of each) mixed with 1 µM G-actin in D buffer, polymerized with 50 mM NaCl for 5-10 min, 10% PEG 300; decorated filaments captured on PLL-PEG/BSA coverslips in microfluidic channels, washed with TIR50 buffer.

The target of test [3] is β-actin filament (cytoskeletal actin, polymerized from G-actin) (UniProt P60709 1-375). Described as above.

B1: Tpm1.6 AF488 (Tpm1.6 labeled at Cys-190 with Alexa Fluor 488 C5 maleimide) (natural protein)
chain: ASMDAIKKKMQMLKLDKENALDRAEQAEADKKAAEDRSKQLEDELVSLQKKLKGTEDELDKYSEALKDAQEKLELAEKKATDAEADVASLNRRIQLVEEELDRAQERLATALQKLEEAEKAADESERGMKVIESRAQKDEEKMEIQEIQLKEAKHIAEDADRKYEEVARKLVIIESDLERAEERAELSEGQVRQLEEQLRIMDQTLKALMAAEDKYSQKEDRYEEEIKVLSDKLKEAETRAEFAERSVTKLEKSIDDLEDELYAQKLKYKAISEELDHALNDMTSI
modifications: Alexa Fluor 488 C5 maleimide on Cys-190 (monomer labeling ratio approximately 95%)
Turning to B1, the Kd in test [1] turned out to be 1210 nM.

B2: Tpm1.6 AF568 (Tpm1.6 labeled at Cys-190 with Alexa Fluor 568 C5 maleimide) (natural protein)
chain: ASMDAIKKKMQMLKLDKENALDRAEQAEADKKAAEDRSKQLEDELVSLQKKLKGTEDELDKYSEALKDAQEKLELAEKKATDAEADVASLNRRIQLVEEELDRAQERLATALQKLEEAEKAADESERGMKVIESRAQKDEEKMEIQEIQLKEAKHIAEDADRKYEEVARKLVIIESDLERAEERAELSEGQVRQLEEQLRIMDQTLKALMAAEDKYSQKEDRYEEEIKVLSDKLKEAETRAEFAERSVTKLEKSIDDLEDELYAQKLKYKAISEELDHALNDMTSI
modifications: Alexa Fluor 568 C5 maleimide on Cys-190 (monomer labeling ratio approximately 95%)
Regarding B2, the Kd in test [1] came to 2370 nM. Further, the “ratio of Tpm in Ch1 (red, AF568)/Ch2 (green, AF488) on the filament, median” value in test [2] and in test [3] was 0.7 in each case.
